Here are results for one variant from IntAct's records for PubMed 12907709.

B1: DNA-directed RNA polymerase II subunit rpb7 (Schizosaccharomyces pombe (strain ATCC 38366 / 972)), O14459 (parent)
chain: MPFFLKELSLTISLHPSYFGPRMQDYLKAKLLADVEGTCSGQYGYIICVLDSNTIDIDKGRVVPGQGFAEFEVKYRAVLWRPFRGEVVDAIVTTVNKMGFFANIGPLNVFVSSHLVPPDMKFDPTANPPNYSGEDQVIEKGSNVRLKIVGTRTDATEIFAIATMKEDYLGVL
partner: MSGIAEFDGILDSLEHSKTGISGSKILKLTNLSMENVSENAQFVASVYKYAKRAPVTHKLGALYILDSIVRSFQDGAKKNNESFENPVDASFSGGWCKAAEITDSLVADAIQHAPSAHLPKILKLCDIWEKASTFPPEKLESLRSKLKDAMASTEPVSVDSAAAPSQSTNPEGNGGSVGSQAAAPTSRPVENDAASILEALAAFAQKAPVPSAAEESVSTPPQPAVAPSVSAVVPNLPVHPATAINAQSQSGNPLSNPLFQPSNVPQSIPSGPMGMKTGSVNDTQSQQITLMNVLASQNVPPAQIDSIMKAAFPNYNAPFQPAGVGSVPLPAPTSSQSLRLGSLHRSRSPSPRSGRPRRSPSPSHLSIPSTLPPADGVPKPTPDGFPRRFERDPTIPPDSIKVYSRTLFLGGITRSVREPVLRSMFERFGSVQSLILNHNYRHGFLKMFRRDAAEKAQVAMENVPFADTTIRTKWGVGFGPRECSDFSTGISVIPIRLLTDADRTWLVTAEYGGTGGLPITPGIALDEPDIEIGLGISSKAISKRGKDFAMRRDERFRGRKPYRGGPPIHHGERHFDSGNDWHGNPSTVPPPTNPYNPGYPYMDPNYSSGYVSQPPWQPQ

This assay covers variants of B1. The conditions noted are these: with seb1_schpo seb1, Q9UTE3.
With E166R;D167A, the “effect of a mutation on the interaction” value is “disrupting interaction”.
